Changes are numbered by the printed parent chain. Numbers in names are those of the source.
T1: EsCas13d, nuclease-dead (Eubacterium siraeum, UniProt B0MS50, R295A;H300A;R849A;H854A)
T1 sequence: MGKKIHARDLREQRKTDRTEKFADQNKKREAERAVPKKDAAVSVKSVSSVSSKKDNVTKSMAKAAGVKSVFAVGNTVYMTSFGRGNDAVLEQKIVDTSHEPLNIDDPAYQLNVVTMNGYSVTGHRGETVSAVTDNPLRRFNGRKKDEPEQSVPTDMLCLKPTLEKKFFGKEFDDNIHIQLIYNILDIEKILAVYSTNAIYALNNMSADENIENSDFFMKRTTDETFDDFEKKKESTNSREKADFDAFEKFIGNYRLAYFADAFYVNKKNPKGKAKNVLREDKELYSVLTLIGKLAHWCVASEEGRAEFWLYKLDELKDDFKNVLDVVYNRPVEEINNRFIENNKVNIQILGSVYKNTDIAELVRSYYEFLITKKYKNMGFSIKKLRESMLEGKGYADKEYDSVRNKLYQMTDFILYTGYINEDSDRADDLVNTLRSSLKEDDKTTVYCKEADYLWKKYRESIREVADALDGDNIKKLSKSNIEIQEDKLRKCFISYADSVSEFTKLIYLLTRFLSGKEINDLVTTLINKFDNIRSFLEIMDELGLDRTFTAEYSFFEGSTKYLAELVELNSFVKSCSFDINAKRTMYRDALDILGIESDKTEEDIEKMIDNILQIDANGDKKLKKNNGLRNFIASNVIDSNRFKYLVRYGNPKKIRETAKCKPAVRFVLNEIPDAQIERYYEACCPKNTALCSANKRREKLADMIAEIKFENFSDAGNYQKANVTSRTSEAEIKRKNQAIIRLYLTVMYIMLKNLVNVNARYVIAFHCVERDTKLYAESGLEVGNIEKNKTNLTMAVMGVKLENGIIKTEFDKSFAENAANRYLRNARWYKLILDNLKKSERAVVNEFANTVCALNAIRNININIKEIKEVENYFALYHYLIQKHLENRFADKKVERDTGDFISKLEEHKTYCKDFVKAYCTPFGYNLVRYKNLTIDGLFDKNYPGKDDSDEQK

B1: target 1 insA 3' of 22,insU 3' of 12 (mixed)
RNA 1: CACCCGUGCAAAAAUGCAGGGGUCUAAAACUGAGCGGAUAACCUCUCUAUGG
RNA 2: GGGAAUGGAUCCACAUCUACGAAUUCGUACACAUAGAGAGGUUUAUCCGCUCACCGAGAUCGGAAGAGCACACGU
B2: target 1 A20C,C21A (mixed)
RNA 1: B1 RNA 1
RNA 2: GGGAAUGGAUCCACAUCUACGAAUUCGUACACUAGAGAGGUUAUCCGCUCACCGAGAUCGGAAGAGCACACGU
B3: target 1 insU 3' of 17,insU 3' of 7 (mixed)
RNA 1: B1 RNA 1
RNA 2: GGGAAUGGAUCCACAUCUACGAAUUCGUACCAUAGUAGAGGUUAUCUCGCUCACCGAGAUCGGAAGAGCACACGU
B4: target 1 del6,del7 (mixed)
RNA 1: B1 RNA 1
RNA 2: GGGAAUGGAUCCACAUCUACGAAUUCGUACCAUAGAGAGGUUAUGCUCACCGAGAUCGGAAGAGCACACGU
B5: target 1 G13A,A20U (mixed)
RNA 1: B1 RNA 1
RNA 2: B2 RNA 2 with A31C, C32U, G39A
B6: target 1 complement block 1-3 (mixed)
RNA 1: B1 RNA 1
RNA 2: B2 RNA 2 with A31C, C32A, U49A, C50G, A51U
B7: target 1 insG 3' of 19,insG 3' of 2 (mixed)
RNA 1: B1 RNA 1
RNA 2: B3 RNA 2 with A34G, G35A, U36G, U47C, C48G, G49C, C50U, U51C, C52G
B8: target 1 insC 3' of 15,insC 3' of 8 (mixed)
RNA 1: B1 RNA 1
RNA 2: B3 RNA 2 with U36A, A37G, G38C, U47C
B9: target 1 U8A,U11A (mixed)
RNA 1: B1 RNA 1
RNA 2: B2 RNA 2 with A31C, C32A, U41A, U44A
B10: target 1 C2A,U10G (mixed)
RNA 1: B1 RNA 1
RNA 2: B2 RNA 2 with A31C, C32A, U42G, C50A
B11: target 1 C6U,A14G (mixed)
RNA 1: B1 RNA 1
RNA 2: B2 RNA 2 with A31C, C32A, A38G, C46U
B12: target 1 C2U,G15C (mixed)
RNA 1: B1 RNA 1
RNA 2: B2 RNA 2 with A31C, C32A, G37C, C50U
B13: target 1 insG 3' of 8,insU 3' of 4 (mixed)
RNA 1: B1 RNA 1
RNA 2: GGGAAUGGAUCCACAUCUACGAAUUCGUACCAUAGAGAGGUUAUGCCGCUUCACCGAGAUCGGAAGAGCACACGU
B14: target 1 insG 3' of 16,insU 3' of 4 (mixed)
RNA 1: B1 RNA 1
RNA 2: B13 RNA 2 with A38G, G39A, U41G, A43U, U44A, G45U
B15: target 1 G12A,C21U (mixed)
RNA 1: B1 RNA 1
RNA 2: B2 RNA 2 with A31U, C32A, G40A
B16: target 1 G13C,A14U (mixed)
RNA 1: B1 RNA 1
RNA 2: B2 RNA 2 with A31C, C32A, A38U, G39C
B17: target 1 insA 3' of 6,insG 3' of 1 (mixed)
RNA 1: B1 RNA 1
RNA 2: B13 RNA 2 with G45C, C47A, U51C, C52A, A53G
B18: target 1 insA 3' of 8,insC 3' of 3 (mixed)
RNA 1: B1 RNA 1
RNA 2: B13 RNA 2 with G45A, U51C
B19: target 1 insU 3' of 5,insG 3' of 2 (mixed)
RNA 1: B1 RNA 1
RNA 2: B13 RNA 2 with G45C, C47G, G48U, U51C, C52G
B20: target 1 U3G,C6A (mixed)
RNA 1: B1 RNA 1
RNA 2: B2 RNA 2 with A31C, C32A, C46A, U49G
B21: target 1 insC 3' of 20,insU 3' of 12 (mixed)
RNA 1: B1 RNA 1
RNA 2: B1 RNA 2 with A31C, C32A, A33C
B22: target 1 G5U,U11C (mixed)
RNA 1: B1 RNA 1
RNA 2: B2 RNA 2 with A31C, C32A, U41C, G47U
B23: target 1 C7U,U8G (mixed)
RNA 1: B1 RNA 1
RNA 2: B2 RNA 2 with A31C, C32A, U44G, C45U
B24: target 1 insG 3' of 11,insG 3' of 3 (mixed)
RNA 1: B1 RNA 1
RNA 2: B13 RNA 2 with U42G, A43U, U44A, G45U, U51G
B25: target 1 insA 3' of 11,insA 3' of 3 (mixed)
RNA 1: B1 RNA 1
RNA 2: B13 RNA 2 with U42A, A43U, U44A, G45U, U51A
B26: target 1 insA 3' of 19,insA 3' of 8 (mixed)
RNA 1: B1 RNA 1
RNA 2: B3 RNA 2 with G35A, U36G, C46A, U47C
B27: target 1 U3C,U10C (mixed)
RNA 1: B1 RNA 1
RNA 2: B2 RNA 2 with A31C, C32A, U42C, U49C
B28: target 1 insC 3' of 10,insA 3' of 4 (mixed)
RNA 1: B1 RNA 1
RNA 2: B13 RNA 2 with A43C, U44A, G45U, U50A
B29: target 1 insA 3' of 6,insA 3' of 2 (mixed)
RNA 1: B1 RNA 1
RNA 2: B13 RNA 2 with G45C, C47A, U51C, C52A
B30: target 1 insC 3' of 8,insG 3' of 6 (mixed)
RNA 1: B1 RNA 1
RNA 2: B13 RNA 2 with G45C, C49G, U50C
B31: target 1 C2G,U3A (mixed)
RNA 1: B1 RNA 1
RNA 2: B2 RNA 2 with A31C, C32A, U49A, C50G
B32: target 1 insU 3' of 22,insC 3' of 15 (mixed)
RNA 1: B1 RNA 1
RNA 2: B1 RNA 2 with A31U, A39C, G40A, U42G
B33: target 1 A1G,A20C (mixed)
RNA 1: B1 RNA 1
RNA 2: B2 RNA 2 with A31C, A51G
B34: target 1 insG 3' of 6,insU 3' of 1 (mixed)
RNA 1: B1 RNA 1
RNA 2: B13 RNA 2 with G45C, C47G, U51C, C52A, A53U

biological target: T1, EsCas13d, nuclease-dead; assay: crRNA (strand 1, pre-loaded); Mg2+; 40 mM Tris-HCl pH 7.5, 150 mM NaCl, 6 mM MgCl2, 1 mM DTT, 0.1% Tween-20, 0.2 mg/ml BSA; 25 C; 10 min per concentration, then washed; conditions: tags: His6-TwinStrep-SUMO cleaved; N-terminal SNAP kept (SNAP-Surface 488); label: 3' end held by stalled T7 RNA polymerase

Binder | Kd
B1 | 0.0115 ± 0.0011 µM
B2 | 0.00563 ± 0.00034 µM
B3 | 0.0254 ± 0.001 µM
B4 | 0.0114 ± 0.0007 µM
B5 | 0.0145 ± 0.0022 µM
B6 | 0.007 ± 0.0005 µM
B7 | 0.099 ± 0.026 µM
B8 | 0.0262 ± 0.0028 µM
B9 | 0.0268 ± 0.0019 µM
B10 | 0.028 ± 0.0019 µM
B11 | 0.0142 ± 0.0007 µM
B12 | 0.049 ± 0.005 µM
B13 | 0.00944 ± 0.00034 µM
B14 | 0.0139 ± 0.0006 µM
B15 | 0.0078 ± 0.0005 µM
B16 | 0.0131 ± 0.0011 µM
B17 | 0.016 ± 0.0012 µM

Binder | Kd
B18 | 0.0158 ± 0.0006 µM
B19 | 0.0091 ± 0.0005 µM
B20 | 0.0063 ± 0.0004 µM
B21 | 0.00619 ± 0.00032 µM
B22 | 0.061 ± 0.008 µM
B23 | 0.0142 ± 0.001 µM
B24 | 0.042 ± 0.007 µM
B25 | 0.014 ± 0.0007 µM
B26 | 0.0311 ± 0.0027 µM
B27 | 0.051 ± 0.009 µM
B28 | 0.0155 ± 0.0026 µM
B29 | 0.0187 ± 0.0013 µM
B30 | 0.0171 ± 0.0013 µM
B31 | 0.0134 ± 0.0013 µM
B32 | 0.067 ± 0.014 µM
B33 | 0.041 ± 0.004 µM
B34 | 0.0178 ± 0.0023 µM
